Test results published in IntAct's records for PubMed 28712572.

Target: gbrap_human GABARAP (UniProt O95166)
Sequence (O95166 whole entry): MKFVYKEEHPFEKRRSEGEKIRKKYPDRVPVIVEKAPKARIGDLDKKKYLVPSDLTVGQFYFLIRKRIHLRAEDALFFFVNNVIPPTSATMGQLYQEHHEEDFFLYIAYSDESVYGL

Row | effect of a mutation on the interaction | Substance
1 | with no effect | Pericentriolar material 1 protein (Homo sapiens), Q15154 I1954R
2 | with no effect | Pericentriolar material 1 protein (Homo sapiens), Q15154 I1954S
3 | with no effect | Pericentriolar material 1 protein (Homo sapiens), Q15154 I1954T
4 | decreasing interaction strength | Pericentriolar material 1 protein (Homo sapiens), Q15154 I1954V
5 | with no effect | Pericentriolar material 1 protein (Homo sapiens), Q15154 I1954W
6 | with no effect | Pericentriolar material 1 protein (Homo sapiens), Q15154 I1954Y
7 | with no effect | Pericentriolar material 1 protein (Homo sapiens), Q15154 I1975A
8 | with no effect | Pericentriolar material 1 protein (Homo sapiens), Q15154 I1975C
9 | with no effect | Pericentriolar material 1 protein (Homo sapiens), Q15154 I1975D
10 | with no effect | Pericentriolar material 1 protein (Homo sapiens), Q15154 I1975E
11 | with no effect | Pericentriolar material 1 protein (Homo sapiens), Q15154 I1975F
12 | with no effect | Pericentriolar material 1 protein (Homo sapiens), Q15154 I1975G
13 | with no effect | Pericentriolar material 1 protein (Homo sapiens), Q15154 I1975H
14 | with no effect | Pericentriolar material 1 protein (Homo sapiens), Q15154 I1975K
15 | with no effect | Pericentriolar material 1 protein (Homo sapiens), Q15154 I1975L
16 | with no effect | Pericentriolar material 1 protein (Homo sapiens), Q15154 I1975M
17 | with no effect | Pericentriolar material 1 protein (Homo sapiens), Q15154 I1975N
18 | with no effect | Pericentriolar material 1 protein (Homo sapiens), Q15154 I1975P
19 | with no effect | Pericentriolar material 1 protein (Homo sapiens), Q15154 I1975Q
20 | with no effect | Pericentriolar material 1 protein (Homo sapiens), Q15154 I1975R
21 | with no effect | Pericentriolar material 1 protein (Homo sapiens), Q15154 I1975S
22 | with no effect | Pericentriolar material 1 protein (Homo sapiens), Q15154 I1975T
23 | with no effect | Pericentriolar material 1 protein (Homo sapiens), Q15154 I1975V
24 | with no effect | Pericentriolar material 1 protein (Homo sapiens), Q15154 I1975W

Row | effect of a mutation on the interaction | Substance
25 | with no effect | Pericentriolar material 1 protein (Homo sapiens), Q15154 I1975Y
26 | with no effect | Pericentriolar material 1 protein (Homo sapiens), Q15154 K1957A
27 | with no effect | Pericentriolar material 1 protein (Homo sapiens), Q15154 K1957C
28 | with no effect | Pericentriolar material 1 protein (Homo sapiens), Q15154 K1957D
29 | with no effect | Pericentriolar material 1 protein (Homo sapiens), Q15154 K1957E
30 | with no effect | Pericentriolar material 1 protein (Homo sapiens), Q15154 K1957F
31 | with no effect | Pericentriolar material 1 protein (Homo sapiens), Q15154 K1957G
32 | with no effect | Pericentriolar material 1 protein (Homo sapiens), Q15154 K1957H
33 | with no effect | Pericentriolar material 1 protein (Homo sapiens), Q15154 K1957I
34 | with no effect | Pericentriolar material 1 protein (Homo sapiens), Q15154 K1957L
35 | with no effect | Pericentriolar material 1 protein (Homo sapiens), Q15154 K1957M
36 | with no effect | Pericentriolar material 1 protein (Homo sapiens), Q15154 K1957N
37 | with no effect | Pericentriolar material 1 protein (Homo sapiens), Q15154 K1957P
38 | with no effect | Pericentriolar material 1 protein (Homo sapiens), Q15154 K1957Q
39 | with no effect | Pericentriolar material 1 protein (Homo sapiens), Q15154 K1957R
40 | with no effect | Pericentriolar material 1 protein (Homo sapiens), Q15154 K1957S
41 | with no effect | Pericentriolar material 1 protein (Homo sapiens), Q15154 K1957T
42 | with no effect | Pericentriolar material 1 protein (Homo sapiens), Q15154 K1957V
43 | with no effect | Pericentriolar material 1 protein (Homo sapiens), Q15154 K1957W
44 | with no effect | Pericentriolar material 1 protein (Homo sapiens), Q15154 K1957Y
45 | with no effect | Pericentriolar material 1 protein (Homo sapiens), Q15154 K1965A
46 | with no effect | Pericentriolar material 1 protein (Homo sapiens), Q15154 K1965C
47 | with no effect | Pericentriolar material 1 protein (Homo sapiens), Q15154 K1965D
48 | with no effect | Pericentriolar material 1 protein (Homo sapiens), Q15154 K1965E

Row | effect of a mutation on the interaction | Substance
49 | with no effect | Pericentriolar material 1 protein (Homo sapiens), Q15154 K1965F
50 | disrupting interaction strength | Pericentriolar material 1 protein (Homo sapiens), Q15154 K1965G
51 | with no effect | Pericentriolar material 1 protein (Homo sapiens), Q15154 K1965H
52 | with no effect | Pericentriolar material 1 protein (Homo sapiens), Q15154 K1965I
53 | with no effect | Pericentriolar material 1 protein (Homo sapiens), Q15154 K1965L
54 | with no effect | Pericentriolar material 1 protein (Homo sapiens), Q15154 K1965M
55 | with no effect | Pericentriolar material 1 protein (Homo sapiens), Q15154 K1965N
56 | disrupting interaction strength | Pericentriolar material 1 protein (Homo sapiens), Q15154 K1965P
57 | with no effect | Pericentriolar material 1 protein (Homo sapiens), Q15154 K1965Q
58 | with no effect | Pericentriolar material 1 protein (Homo sapiens), Q15154 K1965R
59 | with no effect | Pericentriolar material 1 protein (Homo sapiens), Q15154 K1965S
60 | with no effect | Pericentriolar material 1 protein (Homo sapiens), Q15154 K1965T
61 | with no effect | Pericentriolar material 1 protein (Homo sapiens), Q15154 K1965V
62 | with no effect | Pericentriolar material 1 protein (Homo sapiens), Q15154 K1965W
63 | with no effect | Pericentriolar material 1 protein (Homo sapiens), Q15154 K1965Y
64 | with no effect | Pericentriolar material 1 protein (Homo sapiens), Q15154 K1972A
65 | with no effect | Pericentriolar material 1 protein (Homo sapiens), Q15154 K1972C
66 | with no effect | Pericentriolar material 1 protein (Homo sapiens), Q15154 K1972D
67 | with no effect | Pericentriolar material 1 protein (Homo sapiens), Q15154 K1972E
68 | with no effect | Pericentriolar material 1 protein (Homo sapiens), Q15154 K1972F
69 | with no effect | Pericentriolar material 1 protein (Homo sapiens), Q15154 K1972G
70 | with no effect | Pericentriolar material 1 protein (Homo sapiens), Q15154 K1972H
